T1: γc ectodomain (human, UniProt P31785 23-262, C-terminally biotinylated (staining reagent for yeast))
T1 sequence: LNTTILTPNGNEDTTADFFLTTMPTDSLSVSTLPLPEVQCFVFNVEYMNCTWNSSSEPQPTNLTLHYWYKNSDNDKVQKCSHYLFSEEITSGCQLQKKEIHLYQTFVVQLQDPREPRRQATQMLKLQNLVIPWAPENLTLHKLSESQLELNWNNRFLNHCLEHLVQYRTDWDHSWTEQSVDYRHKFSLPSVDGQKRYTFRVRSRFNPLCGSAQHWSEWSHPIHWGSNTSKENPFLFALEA


Legend:
CD25 ectodomain = CD25 ectodomain (UniProt P01589)
γc ectodomain = molecular target: T1, γc ectodomain; assay: crystal structure

Sequence of CD25 ectodomain (P01589 22-240): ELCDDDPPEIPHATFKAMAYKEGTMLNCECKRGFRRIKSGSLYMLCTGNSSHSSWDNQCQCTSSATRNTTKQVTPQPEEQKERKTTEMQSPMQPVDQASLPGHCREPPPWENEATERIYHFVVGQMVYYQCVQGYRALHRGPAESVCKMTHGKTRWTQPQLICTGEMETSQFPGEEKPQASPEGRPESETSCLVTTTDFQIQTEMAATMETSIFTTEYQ

Kd (CD25 ectodomain) [nM]	binding result (γc ectodomain)	Molecule
1400	–	H9 F42A (from UniProt P60568 21-153) (designed binder)
6.6	–	H9 super-2 (IL-2 superkine, second generation) (from UniProt P60568 21-153) (designed binder)
–	binds	IL-2Rβ ectodomain (receptor, C-terminally biotinylated (staining reagent for yeast)) AVNGTSQFTCFYNSRANISCVWSQDGALQDTSCQVHAWPDRRRWNQTCELLPVSQASWACNLILGAPDSQKLTTVDIVTLRVLCREGVRWRVMAIQDFKPFENLRLMAPISLQVVHVETHRCNISWEISQASHYFERHLEFEARTLSPGHTWEEAPLLTLKQKQEWICLETLTPDTQYEFQVRVKPLQGEFTTWSPWSQPLAFRTKPAALGKDT

— paper PMC3338870 (Nature, 2012)
